The values below come from the DeepSol protein solubility set.

The nature of the series: soluble on expression in E. coli; label from the status in PepcDB or PDB records.
Consider “MSLSIALIAPYESLATLCRSICQELDLDVSVHTGSMEDGVRIARNLMAEGVDFFISRGLTAQLIREQCPLPVAELEVSAFDIYLCLEPLLRSGKSIGVVGHSDILRKAKGASAALGFTIDFYATAHPGGMGHIMEAARRQGIAAIAGDAVAARTAERYGMEGVLVQNGADSVTNTLQYAVATYSYLTRQATMAGEGHHHHHH”, for which the “soluble on expression in E. coli” value was “not soluble”.

With “MAGHVHKVAVRQLKLLRYRNYFSFNIRFSGQHVVFTGHNGSGKTNLLEALSFLSPGRGLRRAAYSDVSFANGGGEGFVVFARLECALYGEVNIGTALEMSDNSRKVHINGVNETGDCLTDYCHMSILTPSMDGLFTGSSLERRRFLDRMVLAIDPLHSRRIADYDRVMRARNRLFLDGNEDCAWFDALEKQMAELATAISAARIDVIRLLNDMLARTPSQLPFPRAFLQIDGFLEAALSKISAVEVEEQFCDRLQHNRAIDRAAGRTLEGPHRTDLQVFYADKNMAAASCSTGEQKALLTGLVLCHARLTGLMSERTPILLLDEIVAHLDSHRRAALFDILDDLGGQTFMTGTDPILFNALKGRAEFFAIKDGTLLQ”, the “soluble on expression in E. coli” value was “not soluble”. Take “MGSDKIHHHHHHMGREIFNRRLPDNYNDFSHSMDNAANGHYFLRVASSNYKRPDGKNVRTVRDVIAEVDQNGVVVDEWRLFDILDPYRDVIMKTLDQGAVCLNIDASQSGHTLSEEDLAALDSSDKFGDIVGSGAGRNWAHVNSVDYDSEDDSIIISSRHQSAIIKIGRDKKVKWILGTPAGWKAPFNAAILTPVDSKGQKIACQDSGCEGDFDWTWTQHTAFKIDSKSKGDILYLSAFDNGDGRGLEQPAMQSMKYSRSVIYKIDQKNKTVQQIWQYGKERGNEWFSPVTSITEYQTDKNSVFVYSATAGGAFDLSVGAFTSLPNPYLEEFKWGEKEPAVEMQIHGARGYQAMPFSLTKALTE”: the “soluble on expression in E. coli” value is “not soluble”.

With “MPTNVTAEYLAAEEEYRNAKTIPEKIRALEKMYALVPKHKGTEKLRLQIKRRLAELRRELEKQRQQRKGGGYSLAVKKEGAAQIVLVGLPNVGKSELLRALTGVDVESADYPFTTTEPVPAMMNYKDVQIQLVEVPGLLEGAALGKGMGPQLLAVIRNADAIAIVIDLSEDPIKQMEILLREFERAGIKVNKRRPRVEIRKTPSGGIVINGAENIKGDLSEVMRMLREEKIHSAEITVKEPVTLEEFADALDDSLVWKKAIIIANKGDSPGSKENYHKLINKYGEKFKIVPVSAKKRINLEAVKEAIYDVAEIIRVFTKSPGEEPAYPPIALKRGATVMDVAERIHKDLVKNFRYARVWGKSVKFPGQRVGPDHVLEDGDIVEIHAK”, the “soluble on expression in E. coli” value is listed as “soluble”. For the sequence “MTEEFEIAGISTGAWWSSPTNTAAVFSGYSLPCSTEISPDVTNFGWQNFDNKINDHNDGCMNMHNSFFEGLLIDPNDQLLPDPWSKSTIPNAKSELLENFPFLDNMFLVDSEAESLLDHEIRNHKSSKEQITQDYKNLTSKAQLEENSDEYSPRLLKRPRLETLSPLPSFKVRKEKLGDRITALQQLVSPFGKTDTASVLNEAVEYIKFLQEQVTVLSNPEQNTIGSVQQQQCSNKKSINTQGEVEEDECSPRRYVDLSSRGLCLMPISASYPVAAAAASAAEMNVHLVSGIFHSL”, the “soluble on expression in E. coli” value was “soluble”. For the sequence “MNLMLCCTPLQVLIARKIIELHPNEQFFGVMFGGVWDKKRTLYASKLAEVCSDSMNIDTGKDLKGFDFLKLMRQLKNKITHKGFDKVFLANLNSLWLQTYLSHVSFKELYTFDDGSDNIFPHPNLLREPGTFKYKLIKAFIGDKYSVNKLFKKIKKHYTVYPNYKNIVSNIEPISLWDNQIDCEIDGEVSFFIGQPLLNTKEENISLIKKLKDQIPFDYYFPHPAEDYRVDGVNYVESELIFEDYVFKHLSNKIIIYTFFSSVAFNLLSHPNVEIRFIRTSIPRWQFCYDSFPDLGLTIYKEILEHHHHHH”, the “soluble on expression in E. coli” value is recorded as “soluble”. In the case of “MSLQSEKTEAVVTLGANLTKSERLQMLDAFGVKANEVKIIDVTNQDIREQLGLDTSKPIPASSQSISSSYVVVKDKGGINVTTNNLTEVTGSMLANALLTSGVNNADVKADAPFKVTGTAALAGILKGFEDASGEELSLPKKEAAREEISLTNNLSNAKTKDGQTLGKDEAAVVVNDIKTDVIKDKPKNDEEIGKIVNNVTNNYNILLTQGQQEQTIKFMSKINDLDYNYGAMKESLNQMNDKLQQILKDTGKQLEESGLLEKALNGIKNVLVDIKDFLVNMFSSASEKVKDGITYDENGNIVIKTGNNSDESKNEESIQDKPQTQSNDNNQNQENEQGQNQTKEGHHHHHH”, the “soluble on expression in E. coli” value is recorded as “not soluble”. Consider “MGSDKIHHHHHHMPRKTTSLCRRILLENYTTRGEKMITNLSDRVFVIGTGTSANSVLVCGKKFCVLFDSTLFPEKARKIKEFAAEILGKEIAVVFNTHYHPDHTFGNEVFDRIISHSLTRKSLEEMDEEYIRKIGVEVSLKFPDETFSERENYRFGDIVVEAVHLGGHTPDSSIFVLKNEKIVICGDLLTTGIHAEIVTDSDLFGWIEALSEIEKIRADYFVPGHGKVGTIEDVRNMKDYISKVLRFREGSVKHSELLEDPNFINREHPELLTWGLENIIR”, for which the “soluble on expression in E. coli” value is recorded as “not soluble”. For “MGKMRTPQEVPARLDALAEAARKLKFDVREPVDAGAGAIGAVHSLDYLRFLREAHARWKQLPDDWGDEVVSNVFVREPNALRGVLAQAARYLADGSCPVGPHTWQSAYWAAQCAISGAQTLLDGERHAYALCRPPGHHARRDAAGGFCYLNNAAIAAQMLTQRYKRVAILDTDMHHGQGIQEIFYERSDVLYVSIHGDPENFYPVVAGFENERGAGEGYGYNVNLPMPHGSPEPVFFDRLQQAQRAIELFQPDALVLSLGFDVFEKDPQAMVAVSANGFERLGQAIGAFKLPTLIVQEGGYYIEGLEDNAERFFAGLAKALEHHHHHH”, the “soluble on expression in E. coli” value is reported as “not soluble”. On to “MRGSHHHHHHTDPALRAMATLLQLHFAFNGPFGDAMAEQLKPLAESINQEPGFLWKVWTESEKNHEAGGIYLFTDEKSALAYLEKHTARLKNLGVEEVVAKVFDVNEPLSQINQAKLAGLCGR”, for which the “soluble on expression in E. coli” value is “soluble”. Then “MGSDKIHHHHHHMRLVLEEPFKRLWNGRDPFEAVEALQGKVYRELEGRRTLRTEVDGRGYFVKIHRGIGWGEIAKNLLTAKLPVLGARQEWQAIRRLHEAGVATMTAVAYGERGSDPARQHSFIVTEELAPTVDLEVFSQDWRERPPPPRLKRALVEAVARMVGDMHRAGVNHRDCYICHFLLHTDKPVSADDFRLSVIDLHRAQTRDATPKRWRNKDLAALYFSALDIGLTRRDKLRFLRTYFRRPLREILRDEAGLLAWMERKAEKLYERKQRYGDLL”, with “not soluble”. With “MHSPDPFTDHPDSDDSFEKFVPTPNVNRRRSDAIIVSDEGSFDGITGYSQVTVIENCPNTTVLEDENKRANPDDTITRMLESSDEEDETENNSDNDALADLLKSFRTEDQKRKEVDIEQAANISIDIFGDLIEEVDSEHEAAEYPDREGGNSMDKQGTMLPVEVPIQNNIKLIPRKRRLEPKSYDCEPSTSAAHGPVGVVSSDSGEYWNQQKTITIHGQNFEINNFNDYMRMKITKLNHQVNHGYAKPLENVSRIMEGFSVFVNGYTDPPALVIRDLMISHGGEYHCYYQHGITSYTIASSIATAKINRIRENEIFIKADWITESIAAGKPLDYRDFLIYEKGSVEKGQMQQFLTISTRNTGGNNETTSSNQFSDARNPNFIRDYYARSRLHLISTLAQDMKDFVANLKLEGKLTEKCFEEKELIDMKSLSNEISRESTVFHVDLDCFFVSVAVRNRIDLKHKEVAITHSKGTISNSMSEVASCSYAARDCGVKNGMLVRDALQKCPQLTLLPYQFEDYVQVSRKIYEILASYTLEVRAVSCDEMYINMSSFCEKYEINDPTILAEHIRKVIREKTQCPASVGIGSTSLLARLATRHAKPDGVFWVNAHKKNEFISEEKVKDLPGFGYEMMNRLTSFFGDITKCRELQLKTERELVPVFGPKLASKILRQCRGIEEDPDDFWATHVRKSVSCDINYGIRFTKRGEVIQLMTAIGAELERKLIDSKLTAGSITLKLMVRSANAPIQTSKFMGHGICDTFTKTCNLNVPTTRGESLTSEAMKLYAKVSPKVEDLRGVGVTCGKLKSKLKKDAATAVQEMFGKTSRVGNMARTDEQLNIIPRNEDELDKEPVIIPAVTEDLEVQSIPRQINFRVANDIDIPEIVKSTLLNGRSDNNLELEDLEDDGLVENRLAELECIIQNEPTKESVTNLQEMLSTLLNYGKLSAFETVFRKFEEISMDSSRCDTAWFSVFHLMVPFIEEESKDLLEFPIATTRNLGAMIASNTDNTSISSPEPFVPKEVFVIDSTKHT”, the “soluble on expression in E. coli” value is given as “not soluble”.
